Bridges are numbered along the chain shown (N, C = ends). Primed or numbered codes have the meaning given here. Where no end group is shown, it is not given here. Side-chain parts run from the residue outwards. [ ]: non-standard residue; d: D form. Trp(5-OMe) = COc1ccc2[nH]cc(C[C@H](N)C(=O)O)c2c1; Dip = N[C@H](C(=O)O)C(c1ccccc1)c1ccccc1; Igl = N[C@H](C(=O)O)C1Cc2ccccc2C1; hPhe = N[C@@H](CCc1ccccc1)C(=O)O; Pen = CC(C)(S)[C@H](N)C(=O)O; DBCO′ = dibenzocyclooctyne; Orn = NCCC[C@H](N)C(=O)O; PEG4′ = not defined here; Pra = C#CC[C@H](N)C(=O)O; Dap = NC[C@H](N)C(=O)O
B1: 5% P2-55 nanoparticle (other)
peptide: DPXTWEVWGREXLQGGK
modifications: not fully specified; N-terminal acetyl; penicillamine at 3 and 12, disulfide; Lys17(PEG4-DBCO) clicked to azide PLA-PEG nanoparticle at 5%; C-terminal amide
notes: also called P2-55 5% Ligand Density NP; Pen analog NP
B2: 5% P2-2 nanoparticle (other)
peptide: Ac-DACTWEVWGRECLQGGK-NH2
modifications: disulfide 3-12; not fully specified (residue 17)
notes: also called P2-2 5% Ligand Density NP; alanine analog NP
B3: 1% P2-55 nanoparticle (other)
peptide: DPXTWEVWGREXLQGGK
modifications: not fully specified; N-terminal acetyl; penicillamine at 3 and 12, disulfide; Lys17(PEG4-DBCO) clicked to azide PLA-PEG nanoparticle at 1%; C-terminal amide
notes: also called P2-55 1% Ligand Density NP
B4: P2-101 (peptide)
peptide: DPCTWEVXGRECLQ
modifications: not fully specified; 5-Methoxy Tryptophan at 8; Cys3-Cys12 disulfide
notes: P2 backbone; also called P2 with 5-Methoxy Tryptophan at W8
B5: P2-58 (peptide)
peptide: H-GDP[Orn]TWEVWGREDLQGG[Pra]G-NH2
modifications: lactam 4-13
SMILES: C#CC[C@H](NC(=O)CNC(=O)CNC(=O)[C@H](CCC(N)=O)NC(=O)[C@H](CC(C)C)NC(=O)[C@@H]1CC(=O)NCCC[C@H](NC(=O)[C@@H]2CCCN2C(=O)[C@H](CC(=O)O)NC(=O)CN)C(=O)N[C@@H]([C@@H](C)O)C(=O)N[C@@H](Cc2c[nH]c3ccccc23)C(=O)N[C@@H](CCC(=O)O)C(=O)N[C@@H](C(C)C)C(=O)N[C@@H](Cc2c[nH]c3ccccc23)C(=O)NCC(=O)N[C@@H](CCCNC(=N)N)C(=O)N[C@@H](CCC(=O)O)C(=O)N1)C(=O)NCC(N)=O
B6: P2-65 (peptide)
peptide: H-GDPDTWEVWGRE[Orn]LQGG[Pra]G-NH2
modifications: lactam 4-13
SMILES: C#CC[C@H](NC(=O)CNC(=O)CNC(=O)[C@H](CCC(N)=O)NC(=O)[C@H](CC(C)C)NC(=O)[C@@H]1CCCNC(=O)C[C@H](NC(=O)[C@@H]2CCCN2C(=O)[C@H](CC(=O)O)NC(=O)CN)C(=O)N[C@@H]([C@@H](C)O)C(=O)N[C@@H](Cc2c[nH]c3ccccc23)C(=O)N[C@@H](CCC(=O)O)C(=O)N[C@@H](C(C)C)C(=O)N[C@@H](Cc2c[nH]c3ccccc23)C(=O)NCC(=O)N[C@@H](CCCNC(=N)N)C(=O)N[C@@H](CCC(=O)O)C(=O)N1)C(=O)NCC(N)=O
B7: P2-68 (peptide)
peptide: H-GDPETWEVWGRE[Orn]LQGG[Pra]G-NH2
modifications: lactam 4-13
SMILES: C#CC[C@H](NC(=O)CNC(=O)CNC(=O)[C@H](CCC(N)=O)NC(=O)[C@H](CC(C)C)NC(=O)[C@@H]1CCCNC(=O)CC[C@H](NC(=O)[C@@H]2CCCN2C(=O)[C@H](CC(=O)O)NC(=O)CN)C(=O)N[C@@H]([C@@H](C)O)C(=O)N[C@@H](Cc2c[nH]c3ccccc23)C(=O)N[C@@H](CCC(=O)O)C(=O)N[C@@H](C(C)C)C(=O)N[C@@H](Cc2c[nH]c3ccccc23)C(=O)NCC(=O)N[C@@H](CCCNC(=N)N)C(=O)N[C@@H](CCC(=O)O)C(=O)N1)C(=O)NCC(N)=O
B8: P2-96 (peptide)
peptide: DPCT[Dip]EVWGRECLQ
modifications: disulfide 3-12; not fully specified (N-terminus)
notes: P2 backbone; also called P2 with Diphenylalanine at W5
B9: P2-94 (peptide)
peptide: DPCT[hPhe]EVWGRECLQ
modifications: disulfide 3-12; not fully specified (N-terminus)
notes: P2 backbone; also called P2 with Homophenylalanine at W5
B10: P1-1 (peptide)
peptide: Ac-SECAPLAPDWLSCILGGK(DBCO′)-NH2
modifications: disulfide 3-13
notes: also called P1 alanine scan, AA position 4
B11: P1-8 (peptide)
peptide: Ac-SECFPLAPDWLACILGGK(DBCO′)-NH2
modifications: disulfide 3-13
notes: also called P1 alanine scan, AA position 12
B12: P1-3-4 (peptide)
peptide: Ac-SECFPAAPDWLSCIAGGK(DBCO′)-NH2
modifications: disulfide 3-13
notes: also called alanine scan of flanking residues on P1-3, AA position 15
B13: P1-7 (peptide)
peptide: Ac-SECFPLAPDWASCILGGK(DBCO′)-NH2
modifications: disulfide 3-13
notes: also called P1 alanine scan, AA position 11
B14: P1-6 (peptide)
peptide: Ac-SECFPLAPDALSCILGGK(DBCO′)-NH2
modifications: disulfide 3-13
notes: also called P1 alanine scan, AA position 10
B15: P1-3-1 (peptide)
peptide: Ac-AECFPAAPDWLSCILGGK(DBCO′)-NH2
modifications: disulfide 3-13
notes: also called alanine scan of flanking residues on P1-3, AA position 1
B16: P1-2 (peptide)
peptide: Ac-SECFALAPDWLSCILGGK(DBCO′)-NH2
modifications: disulfide 3-13
notes: also called P1 alanine scan, AA position 5
B17: P1-5 (peptide)
peptide: Ac-SECFPLAPAWLSCILGGK(DBCO′)-NH2
modifications: disulfide 3-13
notes: also called P1 alanine scan, AA position 9
B18: P1-4 (peptide)
peptide: Ac-SECFPLAADWLSCILGGK(DBCO′)-NH2
modifications: disulfide 3-13
notes: also called P1 alanine scan, AA position 8

Molecular target: T1, EGF bound EGFR (rhEGFR-Fc with recombinant human EGF pre-injected in SPR or 50 nM EGF present in ELISA) (human, UniProt P00533 25-645; P01133 971-1023)
T1 construct: Complex of m1 and m5 as target; also called EGFR in the presence of EGF; With EGF; not shown: Fc tag
Experiment: P2 competition ELISA, 5% ligand density NP

| IC50 [µg/mL] | Rel IC50 (against P2 NP) [ratio] | Binder |
| --- | --- | --- |
| 3.4 | 0.79 | B1 |
| 3 | 0.7 | B2 |
| 2.6 | 0.6 | Ac-DPCT[Igl]EV[Trp(5-OMe)]GRECLQGGK([PEG4′-DBCO′])-NH2 (other, disulfide 3-12; not fully specified, also called aromatic analog NP) [5% P2-102 nanoparticle] |

Molecular target: EGF bound EGFR (rhEGFR-Fc with recombinant human EGF pre-injected in SPR or 50 nM EGF present in ELISA) (human) (UniProt P00533)
Experiment: P2 competition ELISA, 5% nanoparticle conjugate

| IC50 [µg/mL] | Rel. Diff. (against P2 NP) | Binder |
| --- | --- | --- |
| 1.6 | 0.27 | Ac-DA[Pen]T[Igl]EV[Trp(5-OMe)]GRE[Pen]LQGGK(DBCO′)-NH2 (disulfide 3-12; not fully specified) [5% P2-2/55/102 nanoparticle] |
| 3.7 | 0.62 | Ac-DACT[Igl]EV[Trp(5-OMe)]GRECLQGGK(DBCO′)-NH2 (disulfide 3-12; not fully specified) [5% P2-2/102 nanoparticle] |
| 2.2 | 0.37 | Ac-DP[Pen]T[Igl]EV[Trp(5-OMe)]GRE[Pen]LQGGK(DBCO′)-NH2 (disulfide 3-12; not fully specified) [5% P2-55/102 nanoparticle] |

Molecular target: T2, Fc tagged recombinant human EGFR (rhEGFR-Fc, R&D systems, Cat#344-ER-050) (human, UniProt P00533 25-645)
T2 construct: Bought protein; also called apo-EGFR; not shown: Fc tag
Experiment: screening ELISA, peptide 100 µM against 0.7 nM biotin-EGF on coated rhEGFR

| % inhibition of EGF [%] | Binder |
| --- | --- |
| < 20 | H-NSDSECPLSH-NH2 [EGFf-1] |

Molecular target: T1, EGF bound EGFR (rhEGFR-Fc with …)
Experiment: P2 competition ELISA, 1% ligand density NP

| IC50 [µg/mL] | Rel IC50 (against P2 NP) [ratio] | Binder |
| --- | --- | --- |
| 17 | 0.2 | Ac-DACTWEVWGRECLQGGK-NH2 (other, disulfide 3-12; not fully specified (residue 17), also called P2-2 1% Ligand Density NP) [1% P2-2 nanoparticle] |
| 7.6 | 0.09 | Ac-DPCT[Igl]EV[Trp(5-OMe)]GRECLQGGK([PEG4′-DBCO′])-NH2 (other, disulfide 3-12; not fully specified) [1% P2-102 nanoparticle] |
| 135 | 1.67 | B3 |

Molecular target: T2, Fc tagged recombinant human EGFR …
Experiment: SPR
Procedure: Surface plasmon resonance (SPR) binding studies were carried out on a Biacore T200 instrument (GE Healthcare). […] The contact time and resulting amount of rhEGFR-Fc capture was varied based on the nature of the analyte, namely whether it was a peptide or nanoparticle.
Peptide binding assays were carried out in 10 mM PBS buffer supplemented with 0.05% surfactant P20 and 5% DMSO by volume, at 25° C. Peptides were injected over the rhEGFR-Fc surface for 60 s, followed by dissociation (buffer injection) for 60 s and regeneration with a 10 s pulse of 3M MgCl₂. A fresh rhEGFR-Fc surface was generated for each concentration of each peptide tested. Peptide binding data was analyzed by fitting to a 1:1 Langmuir kinetic model to obtain the on-rate (kₐ), off-rate (kd) and/or equilibrium binding constant (KD) of the interaction.

| binding result | KD Relative to P2 [ratio] | Binder |
| --- | --- | --- |
| no binding |  | H-GDPKTWEVWGREELQGG[Pra]G-NH2 (lactam 4-13) [P2-60] |
| no binding |  | DPCTWEVWXRECLQGGGG (free N-terminus; Sar at 9; Cys3-Cys12 disulfide; Par at 17; C-terminal amide) [P2-43] |
|  | 0.5 | B4 |
| no binding |  | H-GDPDTWEVWGREKLQGG[Pra]G-NH2 (lactam 4-13) [P2-64] |
| no binding |  | B5 |
| no binding |  | H-GDPDTWEVWGRE[Dap]LQGG[Pra]G-NH2 (lactam 4-13) [P2-66] |
| no binding |  | B6 |
| no binding |  | H-GDPETWEVWGRE[Dap]LQGG[Pra]G-NH2 (lactam 4-13) [P2-69] |
| no binding |  | B7 |
|  | 8.9 | B8 |
|  | 9.1 | B9 |
| no binding |  | H-GDP[Dap]TWEVWGREDLQGG[Pra]G-NH2 (lactam 4-13) [P2-59] |

Molecular target: T2, Fc tagged recombinant human EGFR …
Experiment: EGF competition ELISA, free peptide
Procedure: An alanine scan was performed on the amino acids within the cyclic portion of the peptide structure to determine which amino acids were critical for binding. Each amino acid within the peptide was individually replaced with alanine. […] Subsequently, an alanine scan of the flanking amino acids on P₁₋₃ was performed.

| Peptide Relative IC50 (normalized to P1) [ratio] | Binder |
| --- | --- |
| 1.9 | B10 |
| 1 | B11 |
| 3.2 | B12 |
| 3.5 | B13 |
| 7.1 | B14 |
| 0.7 | B15 |
| 11.5 | B16 |
| 4.4 | B17 |
| 2.7 | B18 |

From patent US20170224620A1 (Pfizer, published 2017)
